Assay results taken from patent US20150322445A1.
Each block holds one molecule with its values, some of them ahead of it.

Assays:
[1] = target: Leavenworthia alabamica Lal2 polypeptide, a1-1 allele (Leavenworthia alabamica); assay: cell-based or functional assay
[2] = target: Leavenworthia alabamica Lal2 polypeptide, a1-2 allele (Leavenworthia alabamica); assay: cell-based or functional assay
Sequence of Leavenworthia alabamica Lal2 polypeptide, a1-2 allele (Leavenworthia alabamica) (main, as listed by the source): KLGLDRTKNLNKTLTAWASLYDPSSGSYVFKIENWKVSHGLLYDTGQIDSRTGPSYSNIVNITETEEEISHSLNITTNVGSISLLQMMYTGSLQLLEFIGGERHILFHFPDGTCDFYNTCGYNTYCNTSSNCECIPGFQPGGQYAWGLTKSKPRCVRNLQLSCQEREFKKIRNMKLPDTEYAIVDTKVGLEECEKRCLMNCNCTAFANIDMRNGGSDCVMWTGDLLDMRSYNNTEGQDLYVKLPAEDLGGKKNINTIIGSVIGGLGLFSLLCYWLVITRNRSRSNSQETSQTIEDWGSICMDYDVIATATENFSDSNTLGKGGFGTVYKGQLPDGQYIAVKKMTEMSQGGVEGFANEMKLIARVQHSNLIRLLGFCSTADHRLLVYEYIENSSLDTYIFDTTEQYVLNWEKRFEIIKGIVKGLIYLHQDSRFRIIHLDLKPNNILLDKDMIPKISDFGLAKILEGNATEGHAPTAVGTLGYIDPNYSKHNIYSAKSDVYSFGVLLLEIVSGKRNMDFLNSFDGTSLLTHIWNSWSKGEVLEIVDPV

Sequence of Leavenworthia alabamica Lal2 polypeptide, a1-1 allele (Leavenworthia alabamica) (chain, as listed by the source limits assumed, form in doubt): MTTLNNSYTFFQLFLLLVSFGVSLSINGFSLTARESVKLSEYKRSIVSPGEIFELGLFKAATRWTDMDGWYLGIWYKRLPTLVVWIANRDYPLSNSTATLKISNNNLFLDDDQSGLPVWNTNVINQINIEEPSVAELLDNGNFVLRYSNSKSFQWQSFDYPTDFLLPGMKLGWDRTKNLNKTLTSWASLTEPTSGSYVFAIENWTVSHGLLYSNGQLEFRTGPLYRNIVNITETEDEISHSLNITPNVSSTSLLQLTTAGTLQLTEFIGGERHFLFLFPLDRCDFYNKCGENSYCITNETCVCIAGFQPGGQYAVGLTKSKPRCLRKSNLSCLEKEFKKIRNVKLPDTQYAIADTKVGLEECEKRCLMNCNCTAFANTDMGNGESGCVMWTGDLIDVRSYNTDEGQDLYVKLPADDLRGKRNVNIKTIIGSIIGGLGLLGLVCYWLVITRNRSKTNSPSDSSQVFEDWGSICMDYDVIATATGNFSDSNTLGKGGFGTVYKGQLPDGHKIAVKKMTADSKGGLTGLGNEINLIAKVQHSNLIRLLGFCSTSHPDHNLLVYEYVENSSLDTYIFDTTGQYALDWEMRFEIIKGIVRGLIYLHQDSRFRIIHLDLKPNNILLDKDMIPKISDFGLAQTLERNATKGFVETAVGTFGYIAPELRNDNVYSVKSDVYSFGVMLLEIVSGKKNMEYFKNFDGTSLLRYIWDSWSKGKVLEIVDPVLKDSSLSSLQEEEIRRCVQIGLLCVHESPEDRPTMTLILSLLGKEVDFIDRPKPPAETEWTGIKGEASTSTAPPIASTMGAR

Pollen rejection reactions observed (fewer than ten pollen tubes in the pistil); female line 1-15 (Lal2 transformant) x male line 3-13 (SCRL transformant), 5 crosses [1]: 3 of 5 crosses
Molecule: Leavenworthia alabamica SCRL polypeptide, a1-1 allele

Pollen rejection reactions observed (fewer than ten pollen tubes in the pistil); female line 1-15 (Lal2 transformant) x male line 4-21 (SCRL transformant), 5 crosses [1]: 3 of 5 crosses | Pollen rejection reactions observed (fewer than ten pollen tubes in the pistil); female line 1-25 (Lal2 transformant) x male line 3-13 (SCRL transformant), 5 crosses [1]: 4 of 5 crosses | Pollen rejection reactions observed (fewer than ten pollen tubes in the pistil); female line 1-25 (Lal2 transformant) x male line 4-21 (SCRL transformant), 5 crosses [1]: 1 of 5 crosses
Molecule: Leavenworthia alabamica SCRL polypeptide, a1-1 allele (ligand)

Crosses that produced fruit or had germinated pollen tubes; a1-2 recipient plant x a2 pollen donors (% of 9 crosses) [2]: 89
Molecule: MAKSVRLISFIIYLTINMLIFAVNPKPHSSQVPPIPDPGKHRRCF (ligand) [Leavenworthia alabamica SCRL, a2 allele (truncated protein)]
